Data on 49 molecules can be found in patent publication US20170056486A1.

The experiment addresses HLA-A*24 (human). The experiment in a line: UV-exchange ELISA (anti-b2m); yield >=75%.

B1: … (peptide)
peptide: VYEAMVPLF
Turning to B1, the peptide exchange yield is above 75%.

B2: … (peptide)
peptide: AYAQLGYLLF
For B2, the peptide exchange yield is above 75%.

B3: … (peptide)
peptide: YYMELTKLLL
In the case of B3, the peptide exchange yield was above 75%.

B4: … (peptide)
peptide: VYMNVMTRL
B4 showed a peptide exchange yield above 75%.

B5: … (peptide)
peptide: VYSSQFETI
As for B5, the peptide exchange yield is above 75%.

B6: … (peptide)
peptide: SYLNEAFSF
With B6, the peptide exchange yield was above 75%.

B7: … (peptide)
peptide: SYSEIKDFL
With B7, the peptide exchange yield was above 75%.

B8: … (peptide)
peptide: IFTDIFHYL
In turn, B8 gave a peptide exchange yield above 75%.

B9: … (peptide)
peptide: KYIDYLMTW
As for B9, the peptide exchange yield was above 75%.

B10: … (peptide)
peptide: TYLEKIDGF
B10 gave a peptide exchange yield above 75%.

B11: … (peptide)
peptide: KQLDIANYELF
The molecule B11 yielded a peptide exchange yield above 75%.

B12: … (peptide)
peptide: AYVIAVHLF
B12 registered a peptide exchange yield above 75%.

B13: … (peptide)
peptide: VFASLPGFLF
As to B13, the peptide exchange yield is above 75%.

B14: … (peptide)
peptide: QYLEKYYNL
In the case of B14, the peptide exchange yield was above 75%.

B15: … (peptide)
peptide: IYAGVGEFSF
As to B15, the peptide exchange yield was above 75%.

B16: … (peptide)
peptide: GYIEHFSLW
As to B16, the peptide exchange yield was above 75%.

B17: … (peptide)
peptide: AFIETPIPLF
B17 displayed a peptide exchange yield above 75%.

B18: … (peptide)
peptide: GYIRGSWQF
As for B18, the peptide exchange yield is above 75%.

B19: … (peptide)
peptide: LYTETRLQF
In turn, B19 registered a peptide exchange yield above 75%.

B20: … (peptide)
peptide: NYLDVATFL
Consider B20, for which the peptide exchange yield is above 75%.

B21: … (peptide)
peptide: AFPTFSVQL
B21: the peptide exchange yield was above 75%.

B22: … (peptide)
peptide: RFLMKSYSF
Regarding B22, the peptide exchange yield is above 75%.

B23: … (peptide)
peptide: IYSVGAFENF
For B23, the peptide exchange yield was above 75%.

B24: … (peptide)
peptide: TFITQSPLL
B24 displayed a peptide exchange yield above 75%.

B25: … (peptide)
peptide: AYAANVHYL
B25 returned a peptide exchange yield above 75%.

B26: … (peptide)
peptide: SYGTVSQIF
Regarding B26, the peptide exchange yield was above 75%.

B27: … (peptide)
peptide: RYPALFPVL
With B27, the peptide exchange yield was above 75%.

B28: … (peptide)
peptide: FYTLPFHLI
As to B28, the peptide exchange yield is above 75%.

B29: … (peptide)
peptide: IYISNSIYF
Molecule B29 returned a peptide exchange yield above 75%.

B30: … (peptide)
peptide: RYLINSYDF
The molecule B30 showed a peptide exchange yield above 75%.

B31: … (peptide)
peptide: VYVPFGGKSMITF
B31 showed a peptide exchange yield above 75%.

B32: … (peptide)
peptide: EYLHNCSYF
B32: the peptide exchange yield is above 75%.

B33: … (peptide)
peptide: VFIFKGNEF
Consider B33, for which the peptide exchange yield was above 75%.

B34: … (peptide)
peptide: QYLVHVNDL
For the molecule B34, the peptide exchange yield was above 75%.

B35: … (peptide)
peptide: VYGVPTPHF
Take B35: the peptide exchange yield is above 75%.

B36: … (peptide)
peptide: IYKWITDNF
B36 registered a peptide exchange yield above 75%.

B37: … (peptide)
peptide: KYGTLDVTF
In the case of B37, the peptide exchange yield was above 75%.

B38: … (peptide)
peptide: GYIKLINFI
Consider B38, for which the peptide exchange yield was above 75%.

B39: … (peptide)
peptide: RYVFPLPYL
B39 came in with a peptide exchange yield above 75%.

B40: … (peptide)
peptide: VFKSEGAYF
Regarding B40, the peptide exchange yield is above 75%.

B41: … (peptide)
peptide: RYHPTTCTI
The molecule B41 came in with a peptide exchange yield above 75%.

B42: … (peptide)
peptide: AFADVSVKF
B42 gave a peptide exchange yield above 75%.

B43: … (peptide)
peptide: QYPFHVPLL
B43 yielded a peptide exchange yield above 75%.

B44: … (peptide)
peptide: AFGQETNVPLNNF
As to B44, the peptide exchange yield was above 75%.

B45: … (peptide)
peptide: VFTTSSNIF
As to B45, the peptide exchange yield was above 75%.

B46: SYGTVSQI (peptide)
peptide: SYGTVSQI
In turn, B46 had a peptide exchange yield above 75%.

B47: … (peptide)
peptide: RYLTISNLQF
Turning to B47, the peptide exchange yield is above 75%.

B48: … (peptide)
peptide: KYIGNLDLL
Regarding B48, the peptide exchange yield is above 75%.

B49: … (peptide)
peptide: VYPFDWQYI
B49 yielded a peptide exchange yield above 75%.
